Experimental data taken from PMC5492865.

Target: papain (UniProt P00784)
Chain of UniProt P00784 (P00784 134-345): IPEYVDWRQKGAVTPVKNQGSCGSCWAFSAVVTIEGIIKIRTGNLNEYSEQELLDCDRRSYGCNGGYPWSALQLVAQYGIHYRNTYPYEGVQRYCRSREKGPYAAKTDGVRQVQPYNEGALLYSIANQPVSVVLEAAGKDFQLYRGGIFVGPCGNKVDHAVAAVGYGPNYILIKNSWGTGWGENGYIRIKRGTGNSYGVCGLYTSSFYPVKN

Q: With “salivary tick cystatin OmC2, recombinant, from insect Sf9 cells, with C-terminal oligo His-tag (non-labeled) (natural protein)” as the substance, how does the active site titration of 10 nM papain with cystatin OmC2 (substrate 10 μM Z-Phe-Arg-AMC, 0.1 M phosphate buffer pH 6.0): molar ratio at which dF/dt = 0 (text: the inhibitor was 88% active) read?
A: The active site titration of 10 nM papain with cystatin OmC2 (substrate 10 μM Z-Phe-Arg-AMC, 0.1 M phosphate buffer pH 6.0): molar ratio at which dF/dt = 0 (text: the inhibitor was 88% active) was 1.16 molar ratio.
